Measurements published in US20140087995A1 (published 2014).
Numbered stars: 1 amine (or outer) side, 2 acyl side, 3 side chain; on linkers, the order of the positions; unused ones are H or OH. Bridge positions count the residues as written; N and C are the ends. Side chains are listed from the residue outwards. Ends that are not written are not given here. * marks the point of attachment. C20 diacid = O=C(O)CCCCCCCCCCCCCCCCCCC(=O)*; γGlu = O=C(O)[C@H](CCC(=O)[*:2])N[*:1]

T1: human calcitonin receptor (human, UniProt P30988 25-474)
T1 construct: whole, on cells; also called hCTR; hCT
T1 sequence (looked up): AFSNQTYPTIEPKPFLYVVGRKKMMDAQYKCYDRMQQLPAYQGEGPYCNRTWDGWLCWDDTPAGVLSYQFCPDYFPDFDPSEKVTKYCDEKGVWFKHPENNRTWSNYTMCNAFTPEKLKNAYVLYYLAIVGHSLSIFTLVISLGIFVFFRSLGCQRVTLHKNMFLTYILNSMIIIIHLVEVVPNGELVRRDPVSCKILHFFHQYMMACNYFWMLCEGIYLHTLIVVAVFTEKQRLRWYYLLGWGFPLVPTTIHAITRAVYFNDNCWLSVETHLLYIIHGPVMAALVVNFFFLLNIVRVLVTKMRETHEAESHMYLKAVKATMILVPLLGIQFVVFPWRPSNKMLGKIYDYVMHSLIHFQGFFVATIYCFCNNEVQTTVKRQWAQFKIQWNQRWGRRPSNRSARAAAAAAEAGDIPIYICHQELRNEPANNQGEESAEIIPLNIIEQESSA

B1: N^ε1-[(4S)-4-carboxy-4-(19-carboxynonadecanoylamino)butanoyl]-[Glu14,Arg17,Pro21,Pro27,Arg35]-h-amylin (peptide)
peptide: K([γGlu-C20 diacid])CNTATCATQRLAEFLRHSSPNFGAIPSSTNVGSRTY-NH2
modifications: disulfide 2-7; N-terminus assumed
SMILES: CC[C@H](C)[C@H](NC(=O)[C@H](C)NC(=O)CNC(=O)[C@H](Cc1ccccc1)NC(=O)[C@H](CC(N)=O)NC(=O)[C@@H]1CCCN1C(=O)[C@H](CO)NC(=O)[C@H](CO)NC(=O)[C@H](Cc1c[nH]cn1)NC(=O)[C@H](CCCNC(=N)N)NC(=O)[C@H](CC(C)C)NC(=O)[C@H](Cc1ccccc1)NC(=O)[C@H](CCC(=O)O)NC(=O)[C@H](C)NC(=O)[C@H](CC(C)C)NC(=O)[C@H](CCCNC(=N)N)NC(=O)[C@H](CCC(N)=O)NC(=O)[C@@H](NC(=O)[C@H](C)NC(=O)[C@@H]1CSSC[C@H](NC(=O)[C@@H](N)CCCCNC(=O)CC[C@H](NC(=O)CCCCCCCCCCCCCCCCCCC(=O)O)C(=O)O)C(=O)N[C@@H](CC(N)=O)C(=O)N[C@@H]([C@@H](C)O)C(=O)N[C@@H](C)C(=O)N[C@@H]([C@@H](C)O)C(=O)N1)[C@@H](C)O)C(=O)N1CCC[C@H]1C(=O)N[C@@H](CO)C(=O)N[C@@H](CO)C(=O)N[C@H](C(=O)N[C@@H](CC(N)=O)C(=O)N[C@H](C(=O)NCC(=O)N[C@@H](CO)C(=O)N[C@@H](CCCNC(=N)N)C(=O)N[C@H](C(=O)N[C@@H](Cc1ccc(O)cc1)C(N)=O)[C@@H](C)O)C(C)C)[C@@H](C)O
notes: also called compound 51
B2: N^ε1-[(4S)-4-carboxy-4-[[(4S)-4-carboxy-4-(19-carboxynonadecanoylamino)butanoyl]amino]butanoyl]-[Asp14,Arg17,Pro21,Pro26,Asp35]-h-amylin (peptide)
peptide: K([γGlu-γGlu-C20 diacid])CNTATCATQRLADFLRHSSPNFGAPLSSTNVGSDTY-NH2
modifications: disulfide 2-7; N-terminus assumed
SMILES: CC(C)C[C@H](NC(=O)[C@H](CCCNC(=N)N)NC(=O)[C@H](CCC(N)=O)NC(=O)[C@@H](NC(=O)[C@H](C)NC(=O)[C@@H]1CSSC[C@H](NC(=O)[C@@H](N)CCCCNC(=O)CC[C@H](NC(=O)CC[C@H](NC(=O)CCCCCCCCCCCCCCCCCCC(=O)O)C(=O)O)C(=O)O)C(=O)N[C@@H](CC(N)=O)C(=O)N[C@@H]([C@@H](C)O)C(=O)N[C@@H](C)C(=O)N[C@@H]([C@@H](C)O)C(=O)N1)[C@@H](C)O)C(=O)N[C@@H](C)C(=O)N[C@@H](CC(=O)O)C(=O)N[C@@H](Cc1ccccc1)C(=O)N[C@@H](CC(C)C)C(=O)N[C@@H](CCCNC(=N)N)C(=O)N[C@@H](Cc1c[nH]cn1)C(=O)N[C@@H](CO)C(=O)N[C@@H](CO)C(=O)N1CCC[C@H]1C(=O)N[C@@H](CC(N)=O)C(=O)N[C@@H](Cc1ccccc1)C(=O)NCC(=O)N[C@@H](C)C(=O)N1CCC[C@H]1C(=O)N[C@@H](CC(C)C)C(=O)N[C@@H](CO)C(=O)N[C@@H](CO)C(=O)N[C@H](C(=O)N[C@@H](CC(N)=O)C(=O)N[C@H](C(=O)NCC(=O)N[C@@H](CO)C(=O)N[C@@H](CC(=O)O)C(=O)N[C@H](C(=O)N[C@@H](Cc1ccc(O)cc1)C(N)=O)[C@@H](C)O)C(C)C)[C@@H](C)O
notes: also called compound 1
B3: N^ε1-[(4S)-4-carboxy-4-(19-carboxynonadecanoylamino)butanoyl]-[His14,Arg17,Pro21,Pro27,His35]-h-amylin (peptide)
peptide: K([γGlu-C20 diacid])CNTATCATQRLAHFLRHSSPNFGAIPSSTNVGSHTY-NH2
modifications: disulfide 2-7; N-terminus assumed
SMILES: CC[C@H](C)[C@H](NC(=O)[C@H](C)NC(=O)CNC(=O)[C@H](Cc1ccccc1)NC(=O)[C@H](CC(N)=O)NC(=O)[C@@H]1CCCN1C(=O)[C@H](CO)NC(=O)[C@H](CO)NC(=O)[C@H](Cc1c[nH]cn1)NC(=O)[C@H](CCCNC(=N)N)NC(=O)[C@H](CC(C)C)NC(=O)[C@H](Cc1ccccc1)NC(=O)[C@H](Cc1c[nH]cn1)NC(=O)[C@H](C)NC(=O)[C@H](CC(C)C)NC(=O)[C@H](CCCNC(=N)N)NC(=O)[C@H](CCC(N)=O)NC(=O)[C@@H](NC(=O)[C@H](C)NC(=O)[C@@H]1CSSC[C@H](NC(=O)[C@@H](N)CCCCNC(=O)CC[C@H](NC(=O)CCCCCCCCCCCCCCCCCCC(=O)O)C(=O)O)C(=O)N[C@@H](CC(N)=O)C(=O)N[C@@H]([C@@H](C)O)C(=O)N[C@@H](C)C(=O)N[C@@H]([C@@H](C)O)C(=O)N1)[C@@H](C)O)C(=O)N1CCC[C@H]1C(=O)N[C@@H](CO)C(=O)N[C@@H](CO)C(=O)N[C@H](C(=O)N[C@@H](CC(N)=O)C(=O)N[C@H](C(=O)NCC(=O)N[C@@H](CO)C(=O)N[C@@H](Cc1c[nH]cn1)C(=O)N[C@H](C(=O)N[C@@H](Cc1ccc(O)cc1)C(N)=O)[C@@H](C)O)C(C)C)[C@@H](C)O
notes: also called compound 66
B4: N^ε1-[(4S)-4-carboxy-4-(19-carboxynonadecanoylamino)butanoyl]-[His14,Arg17,Pro21,Pro27]-h-amylin (peptide)
peptide: K([γGlu-C20 diacid])CNTATCATQRLAHFLRHSSPNFGAIPSSTNVGSNTY-NH2
modifications: disulfide 2-7; N-terminus assumed
SMILES: CC[C@H](C)[C@H](NC(=O)[C@H](C)NC(=O)CNC(=O)[C@H](Cc1ccccc1)NC(=O)[C@H](CC(N)=O)NC(=O)[C@@H]1CCCN1C(=O)[C@H](CO)NC(=O)[C@H](CO)NC(=O)[C@H](Cc1c[nH]cn1)NC(=O)[C@H](CCCNC(=N)N)NC(=O)[C@H](CC(C)C)NC(=O)[C@H](Cc1ccccc1)NC(=O)[C@H](Cc1c[nH]cn1)NC(=O)[C@H](C)NC(=O)[C@H](CC(C)C)NC(=O)[C@H](CCCNC(=N)N)NC(=O)[C@H](CCC(N)=O)NC(=O)[C@@H](NC(=O)[C@H](C)NC(=O)[C@@H]1CSSC[C@H](NC(=O)[C@@H](N)CCCCNC(=O)CC[C@H](NC(=O)CCCCCCCCCCCCCCCCCCC(=O)O)C(=O)O)C(=O)N[C@@H](CC(N)=O)C(=O)N[C@@H]([C@@H](C)O)C(=O)N[C@@H](C)C(=O)N[C@@H]([C@@H](C)O)C(=O)N1)[C@@H](C)O)C(=O)N1CCC[C@H]1C(=O)N[C@@H](CO)C(=O)N[C@@H](CO)C(=O)N[C@H](C(=O)N[C@@H](CC(N)=O)C(=O)N[C@H](C(=O)NCC(=O)N[C@@H](CO)C(=O)N[C@@H](CC(N)=O)C(=O)N[C@H](C(=O)N[C@@H](Cc1ccc(O)cc1)C(N)=O)[C@@H](C)O)C(C)C)[C@@H](C)O
notes: also called compound 70
B5: N^ε1-[(4S)-4-carboxy-4-(19-carboxynonadecanoylamino)butanoyl]-[His14,Arg17,Pro21,Pro27,Pro31]-h-amylin (peptide)
peptide: K([γGlu-C20 diacid])CNTATCATQRLAHFLRHSSPNFGAIPSSTPVGSNTY-NH2
modifications: disulfide 2-7; N-terminus assumed
SMILES: CC[C@H](C)[C@H](NC(=O)[C@H](C)NC(=O)CNC(=O)[C@H](Cc1ccccc1)NC(=O)[C@H](CC(N)=O)NC(=O)[C@@H]1CCCN1C(=O)[C@H](CO)NC(=O)[C@H](CO)NC(=O)[C@H](Cc1c[nH]cn1)NC(=O)[C@H](CCCNC(=N)N)NC(=O)[C@H](CC(C)C)NC(=O)[C@H](Cc1ccccc1)NC(=O)[C@H](Cc1c[nH]cn1)NC(=O)[C@H](C)NC(=O)[C@H](CC(C)C)NC(=O)[C@H](CCCNC(=N)N)NC(=O)[C@H](CCC(N)=O)NC(=O)[C@@H](NC(=O)[C@H](C)NC(=O)[C@@H]1CSSC[C@H](NC(=O)[C@@H](N)CCCCNC(=O)CC[C@H](NC(=O)CCCCCCCCCCCCCCCCCCC(=O)O)C(=O)O)C(=O)N[C@@H](CC(N)=O)C(=O)N[C@@H]([C@@H](C)O)C(=O)N[C@@H](C)C(=O)N[C@@H]([C@@H](C)O)C(=O)N1)[C@@H](C)O)C(=O)N1CCC[C@H]1C(=O)N[C@@H](CO)C(=O)N[C@@H](CO)C(=O)N[C@H](C(=O)N1CCC[C@H]1C(=O)N[C@H](C(=O)NCC(=O)N[C@@H](CO)C(=O)N[C@@H](CC(N)=O)C(=O)N[C@H](C(=O)N[C@@H](Cc1ccc(O)cc1)C(N)=O)[C@@H](C)O)C(C)C)[C@@H](C)O
notes: also called compound 62

Target: T1, human calcitonin receptor
Assay: SPA competition with 125I-calcitonin, membranes of BHK hCTR cells (Assay VII)
How it was run: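 BHK hCTR membranes 35 ng/μL + SPA beads 0.05 mg/well; buffer 50 mM Hepes pH 7.4, 1 mM CaCl2, 5 mM MgCl₂, 0.1% OA, 0.02% Tween20. 120 min, 25° C., shaking. Scintillation count; IC50 by one-site binding competition.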

Binder	IC50 [nM]
B1	31.1
B2	32.5
B3	18
B4	10.3
B5	6.17
